pKd: −log10 of the molar value.
What was measured:
Assay in all cases: other fluorescence titration
[1] = biological target: C1 chimeric virus (HRV14:HIV-1 gp41 ELDKWAS chimera) (human rhinovirus 14 | HIV-1 HxB2)
[2] = biological target: B1 chimeric virus (HRV14:HIV-1 gp41 ELDKWAS chimera) (human rhinovirus 14 | HIV-1 HxB2)
[3] = biological target: 14-C40-1 chimeric virus (HRV14:HIV-1 gp41 ALDKWAS chimera from a previous library) (human rhinovirus 14 | HIV-1 HxB2)

“broadly neutralizing human mAb 2F5 (antibody)” gave a pKd [1] of 7.62, a pKd [2] of 8.70 and a pKd [3] of 6.11.
